In experiment [1] the target is T1, CDC42Hs (human, UniProt P60953).
Experiment [2] addresses T1, CDC42Hs. As to the kind of experiment: inferred from the dose response of GDI activity; reference rhoGDI.
Experiment [3] addresses rac 1 (Homo sapiens (Human)) (UniProt P63000). The description is as above.
Experiment [4] has as its target T1, CDC42Hs. As to the kind of experiment: cell-based or functional assay.
Experiment [5] addresses CDC42Hs (human) (UniProt P60953).
Experiment [6] shares this target. This is another data set of the same source.
For experiment [7] the target is unchanged. As to the kind of experiment: inferred from the dose response of GDI activity; reference rhoGDI.

A value given as a limit tells only on which side of the number the result lay.

Molecule human D4 protein had a GDI activity (times more concentration than rhoGDI) with CDC42Hs [1] above 10. In addition, the times lower binding than rhoGDI (in the experiment with CDC42Hs [2]; in experiment [3]) was 30 to 40 times in each case.

B1: GST-GN LC (chimera of the entire rho GDI sequence except that the carboxyl terminal 33 amino acids were from LD4) (other)
chain: MAEQEPTAEQLAQIAAENEEDEHSVNYKPPAQKSIQEIQELDKDDESLRKYKEALLGRVAVSADPNVPNVVVTGLTLVCSSAPGPLELDLTGDLESFKKQSFVLKEGVEYRIKISFRVNREIVSGMKYIQHTYRKGVKIDKTDYMVGSYGPRAEEYEFLTPVEEAPKGMLAQDTYHNKSFFTDDDKQDHLSWEWNLSIKKEWTE
Regarding B1, the “GDP dissociation inhibition assay” value in the experiment with CDC42Hs [4] was ≥ 20 fold less effective than rho GDI.

B2: GST-LD4 (glutathione-S-transferase fusion protein of LD4) (other)
chain: MTEKAPEPHVEEDDDDELDSKLNYKPPPQKSLKELQEMDKDDESLIKYKKTLLGDGPVVTDPKAPNVVVTRLTLVCESAPGPITMDLTGDLEALKKETIVLKEGSEYRVKIHFKVNRDIVSGLKYVQHTYRTGVKVDKATFMVGSYGPRPEEYEFLTPVEEAPKGMLAQDTYHNKSFFTDDDKQDHLSWEWNLSIKKEWTE
In the case of B2, the “apparent EC50, GDP dissociation inhibition assay” value with CDC42Hs [4] was 7 to 8 µM.

B3: GST-mD4 (glutathione-S-transferase fusion protein of murine D4) (protein)
chain: MTEKDAQPQLEEADDDLDSKLNYKPPPQKSLKELQEMDKDDESLTKYKKTLLGDVPVVADPTVPNVTVTRLSLVCDSAPGPITMDLTGDLEALKKDTFVLKEGIEYRVKINFKVNKDIVSGLKYVQHTYRTGMRVDKATFMVGSYGPRPEEYEFLTPVEEAPKGMLARGTYHNKSFFTDDDKQDHLTWEWNLAIKKDWTEZ
In the experiment with CDC42Hs (human) [5], B3 registered a GDI activity (times more concentration than rhoGDI) above 10. In the experiment with CDC42Hs (human) [6], the apparent EC50, GDP dissociation inhibition assay is 7 to 8 µM. The same molecule registered a times lower binding than rhoGDI with CDC42Hs (human) [7] of 30 to 40 times.

These data come from patent US5767073, “D4 gene and methods of use thereof” (Beth Israel Hospital Association, dated 1998).
